Changes are numbered by the printed parent chain.
Legend:
Experiment in all cases: SPR, mAb captured, C2 mutant analyte;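 also: Anti-C2 mAbs captured on goat anti-human IgG Biacore CM5 chips, alanine or serine C2 surface mutants flowed over at 37 °C, double-referenced sensorgrams fitted to a 1:1 binding model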
human C2 D417A = target: T1, human C2 D417A (human, UniProt P06681 21-752)
T1 sequence: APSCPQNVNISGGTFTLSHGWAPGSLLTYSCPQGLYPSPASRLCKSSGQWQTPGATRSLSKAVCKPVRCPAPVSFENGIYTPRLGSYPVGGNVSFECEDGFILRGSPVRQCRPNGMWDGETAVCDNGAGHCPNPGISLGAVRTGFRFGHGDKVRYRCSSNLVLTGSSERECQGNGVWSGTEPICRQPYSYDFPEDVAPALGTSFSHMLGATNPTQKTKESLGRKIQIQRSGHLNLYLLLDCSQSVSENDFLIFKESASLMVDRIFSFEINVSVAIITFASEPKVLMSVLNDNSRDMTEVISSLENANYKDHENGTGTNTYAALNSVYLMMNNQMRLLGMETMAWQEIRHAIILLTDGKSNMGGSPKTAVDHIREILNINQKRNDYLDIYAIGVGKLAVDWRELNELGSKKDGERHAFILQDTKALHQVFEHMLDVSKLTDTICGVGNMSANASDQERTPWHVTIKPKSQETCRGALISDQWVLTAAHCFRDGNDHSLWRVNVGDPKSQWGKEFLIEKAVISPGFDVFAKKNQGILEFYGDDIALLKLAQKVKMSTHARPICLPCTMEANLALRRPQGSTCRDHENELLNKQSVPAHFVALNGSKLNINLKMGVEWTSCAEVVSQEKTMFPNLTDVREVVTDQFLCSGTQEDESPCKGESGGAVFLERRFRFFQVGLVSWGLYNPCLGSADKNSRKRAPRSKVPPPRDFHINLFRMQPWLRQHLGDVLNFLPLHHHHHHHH
Experimental: (§1) Surface plasmon resonance (SPR, Biacore) was used for all binding affinity analyses. In brief, goat anti-human IgG was directly immobilised onto the carboxymethyl dextran surface of CM5 sensorchips to approximately 12,000 RU using standard NHS/EDC chemistry at pH 5. The immobilised antibody surface was pre-conditioned with ten injections of polyclonal human IgG (Privigen 60 s) prepared at 1 μg/mL. Ligands (anti-C2 mAbs) were captured at the beginning of each cycle as described below. An adjacent spot or flow cell in which only Polyclonal IgG was capture was used as a reference surface. The goat anti-human IgG Fc antibody surface was regenerate in 100 mM H3PO4, injected for 45 seconds at the end of each cycle. Experiments were performed at 37° C. and the flow rate of each experiment was kept constant at 30 μL/min.
(§2) Sensogram data was double-referenced against a reference anti-IgG surface (i.e. minus anti-C2 mAb) and blank buffer injections obtained within each experiment. The binding data was fit to 1:1 (kinetic or steady-state) model using local Rmax and null refraction index (RI=0) when appropriate. Buffers and solutions were filtered (0.22 μm) prior to use.

human C2 D419A = target: T2, human C2 D419A (human, UniProt P06681 21-752)
T2 sequence: T1 sequence with A397D, D399A
Experimental: as §1, §2

human C2 I272A = target: T3, human C2 I272A (human, UniProt P06681 21-752)
T3 sequence: T1 sequence with I252A, A397D
Experimental: as §1, §2

human C2 S456A = target: T4, human C2 S456A (human, UniProt P06681 21-752)
T4 sequence: T1 sequence with A397D, S436A
Experimental: as §1, §2

Kd (human C2 D417A): 56.4 nM
Kd (human C2 D419A): 70.7 nM
Kd (human C2 I272A): 477 nM
Kd (human C2 S456A): 157 nM
B1: RF16-214 (antibody, V domains shown)
VH: EVQLLESGGGLVQPGGSLRLSCAASGFTFSWYQMMWVRQAPGKGLEWVSRIYPSGGGTAYADSVKGRFTISRDNSKNTLYLQMNSLRAEDTAVYYCARDAGYGDNWGQGTLVTVSS
VL: QSALTQPPSVSVSPGQTASITCSGDKLGEKYASWYQQKAGQSPVMVIYQDRKRPSGIPERFSGSNSGNTATLTISGTQAMDEADYYCQAWDTRAVVFGGGTKLTVLG
